Laboratory results as given in article PMC3143144.

Assays:
[1] = molecular target: αE2 (isolated E2 DNA-recognition helix peptide) (Human papillomavirus type 16?) (UniProt P06790); test: EMSA
[2] = molecular target: αE2 (isolated E2 DNA-recognition helix peptide) (Human papillomavirus type 16?) (UniProt P06790); test: DNA melting

UniProt P06790, sequence (P06790 whole entry): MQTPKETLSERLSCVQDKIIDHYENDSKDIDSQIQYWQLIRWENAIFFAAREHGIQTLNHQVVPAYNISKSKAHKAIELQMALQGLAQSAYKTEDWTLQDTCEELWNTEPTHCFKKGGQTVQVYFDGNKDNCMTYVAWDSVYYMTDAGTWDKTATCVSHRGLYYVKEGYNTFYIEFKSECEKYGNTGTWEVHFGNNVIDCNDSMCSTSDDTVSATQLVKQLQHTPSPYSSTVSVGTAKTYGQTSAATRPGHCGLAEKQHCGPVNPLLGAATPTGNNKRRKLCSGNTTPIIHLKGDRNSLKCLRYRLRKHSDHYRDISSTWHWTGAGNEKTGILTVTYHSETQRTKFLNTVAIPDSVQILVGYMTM

Row | Sequence | Kd [1] | binding signal [2]
1 | ACATGGACCTGTCAAGTA (double strand) [Iset non E2-non Dst] | 50 µM | 
2 | GTAGCACAAATCGGTTGA (double strand) [hemisite E2-Dst] | 6.3 µM | 2 C (ΔTm)
